From patent US20030120051A1 (SUGEN, published 2003)

Target: T1, rat CASPR/p190 (rat, UniProt P97846 21-1381)
T1 construct: Endogenous in GH3 cells and rat brain, or expressed from pCM190R in COS7 cells; read from membrane lysates; no cleavage site stated; also called Contactin ASsociated PRotein; 190 kDa protein
T1 sequence: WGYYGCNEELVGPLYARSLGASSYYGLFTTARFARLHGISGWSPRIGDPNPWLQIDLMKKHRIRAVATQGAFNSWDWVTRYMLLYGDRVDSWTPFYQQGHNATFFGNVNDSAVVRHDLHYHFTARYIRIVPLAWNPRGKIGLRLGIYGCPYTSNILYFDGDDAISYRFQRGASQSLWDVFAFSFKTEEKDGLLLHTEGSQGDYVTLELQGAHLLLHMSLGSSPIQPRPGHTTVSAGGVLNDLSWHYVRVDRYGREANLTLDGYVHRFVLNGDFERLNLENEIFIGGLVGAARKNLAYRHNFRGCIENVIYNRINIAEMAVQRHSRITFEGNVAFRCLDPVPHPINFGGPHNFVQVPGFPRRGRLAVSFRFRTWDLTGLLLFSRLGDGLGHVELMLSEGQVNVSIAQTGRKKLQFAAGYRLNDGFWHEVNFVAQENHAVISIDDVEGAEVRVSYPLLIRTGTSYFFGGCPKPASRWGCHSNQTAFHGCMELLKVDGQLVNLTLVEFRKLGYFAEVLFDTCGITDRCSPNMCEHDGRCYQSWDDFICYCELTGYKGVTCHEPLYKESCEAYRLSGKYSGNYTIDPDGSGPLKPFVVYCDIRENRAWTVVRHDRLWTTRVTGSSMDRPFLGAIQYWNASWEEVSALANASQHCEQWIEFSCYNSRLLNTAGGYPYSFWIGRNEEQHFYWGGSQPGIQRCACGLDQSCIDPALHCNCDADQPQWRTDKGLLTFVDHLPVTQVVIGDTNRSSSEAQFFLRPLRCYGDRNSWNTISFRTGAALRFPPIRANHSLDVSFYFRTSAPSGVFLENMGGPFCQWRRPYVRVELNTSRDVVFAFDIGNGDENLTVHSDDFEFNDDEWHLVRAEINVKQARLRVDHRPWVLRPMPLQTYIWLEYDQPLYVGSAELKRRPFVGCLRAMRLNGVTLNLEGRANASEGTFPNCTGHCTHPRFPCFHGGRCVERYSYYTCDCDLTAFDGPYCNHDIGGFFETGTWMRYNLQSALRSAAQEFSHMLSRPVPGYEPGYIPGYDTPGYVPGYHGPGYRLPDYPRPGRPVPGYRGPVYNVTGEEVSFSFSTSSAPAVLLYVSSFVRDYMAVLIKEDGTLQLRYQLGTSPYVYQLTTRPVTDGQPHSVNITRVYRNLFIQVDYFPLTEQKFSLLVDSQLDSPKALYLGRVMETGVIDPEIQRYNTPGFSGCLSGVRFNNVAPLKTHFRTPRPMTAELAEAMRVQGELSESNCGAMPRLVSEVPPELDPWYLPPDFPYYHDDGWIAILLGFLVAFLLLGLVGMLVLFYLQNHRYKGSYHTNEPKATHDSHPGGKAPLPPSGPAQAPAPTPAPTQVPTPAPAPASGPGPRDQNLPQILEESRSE
Assay: bioaffinity precipitation from membrane extracts of labeled GH3 cells

binding result: no binding
B1: βF-Fc (FNIII domain of RPTPβ fused to human IgG1-Fc) (Fc fusion)
chain: not shown
notes: domain: FNIII; also called the FNIII domain alone; fibronectin domain alone; not shown: human IgG1 Fc (vector pCNγ1)
